In the nanobody polyreactivity screen of Harvey et al. (2022):

Assay: yeast display, Sf9 membrane polyspecificity reagent, FACS + sequencing; frameworks hold sequencing errors
How it was run: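 Genes from sorted yeast were amplified by colony PCR, read by MiSeq 2 × 250 sequencing and filtered on CDR length. These cells carried a synthetic nanobody library in Saccharomyces cerevisiae BJ5465 and were sorted by FACS into low and high (top ~1%) gates on anti-HA and streptavidin fluorescence. Polyreactivity is labelled according to the gate of origin.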

| Sequence | polyreactivity (PSR sort gate) |
| --- | --- |
| QVQLVESGGGLVQAGGSIRLSCAASGITFVGNAMGWYRQAPGKERELVASISSGASTNYADSVKGRFTISRDNAKNTVYLQMNSLKPEDTAVYYCAAEGSLEGWDFDSWGQGTQVTVSS | low polyreactivity |
| QVQLVESGGGLVQAGGSIRLSCAASGLIFRYYTMGWYRQAPGKERELVATITKSGSSTYYADSVKGRFTISRDNAKNTVYLQMNSLKPEDTAVYYCAARVTRRYDYWGQGTQLTVSS | high polyreactivity |
| QVQLVESGGGLVQAGGSIRLSCAASGNIFVSYAMGWYRQAPAKERELVAAISKSGGSTYYADSVKGRFTISRDNAKNTVYLQMNSLKPEDTAVYYCAARWYNRVKYQKYNYWGQGTQVTVSS | high polyreactivity |
| QVQLVESGGGLVQAGGSIRLSCAASGRIFYPYAMGWYRPAPGKDRELVAAIRRSGVDTYYADSVKGRFTISRDNAKQTVYLQMNSLKPEDTAVYYCAADPYWFFAHYDSWGQGTQVTVSS | low polyreactivity |
| QVQLVESGGGLVQAGGSIRLSCAASGRISTYYTMGWYRQAPGKERELVAAISWSGTSTYYADSVKGRFTISRDNAKNTVYLQMNSLKPEDTAVYYCNARWRYPLDSVTDDYWGQGTQVTVSS | high polyreactivity |
| QVQLVESGGGLVQAGGSIRLSCAASGSIFGSNAMGWYRQAPGKERELVDAISGSGGSTNYADSVKGRFTISRDNAKNTVYLQMNSLKAEDTAVYYCAVPSKATGSASTSSGIFDSWGQGTQVTVSS | low polyreactivity |
| QVQLVESGGGLVQAGGSIRLSCAASGSIFRPYVMGWSRPAPGKERELVAAISSRGGDTYYADYVKGRFTISRDYAKNTVNVQMISLKPEDTAVYYCNARYYTSYDYWGQGSQVTVSS | low polyreactivity |
| QVQLVESGGGLVQAGGSIRLSCAASGSTFAKNAMGWYRQAPGKERELVAAISRGGNTYYADSGKGRFTISRDNAKNTVYLQMNSLKPEDTAVYYCSKLPFTRTYLGSLYDYWGQGTQVTVSS | high polyreactivity |
| QVQLVESGGGLVQAGGSIRLSCAASGSTFDPYAMGWYRQAPGKEREVVAAISGSRGGSTNYADSVKGRFTISRDNAKNTVYLQMNSLKQEDTAVFYCNARFSYRNGHYYRYYYGGQGTQVTVSS | high polyreactivity |
| QVQLVESGGGLVQAGGSIRLSCAASGSTFDYYAMGWYRQAPGKDRELVAAITTSGSSTFYADSVKGRFTIARDNAKNTVYVQMNSLKPEDTADYYCAAVFRWARQRWLDYWGQGTQVTVSS | high polyreactivity |
| QVQLVESGGGLVQAGGSIRLSCAASGSTFLIKAMGWYRQAPGKERELDASINRRGTSTFYADSVKARFTISRDNAKNTVYLQMNSLKPDDTAVYYCNAYPGAAIRSTGRYDYWGQGTQVTVSS | low polyreactivity |
| QVQLVESGGGLVQAGGSIRLSCAASGSTFRGYSMGWYRQAPGKERELVAAISSRGARTHYADSVKGRFTISRDNSKNTVYLQMNCLKPEDTAVYDCAKVWVRSGRRKMDYWGQGTQVTVSS | low polyreactivity |
| QVQLVESGGGLVQAGGSIRLSCAASGSTFVWNAMGWYRQAPGKERELVAAISSSGGSTYYADSVKGRFTISRDNAKNTVYLQMNSLKPEDTAVYYCAAYYGRRRFGYWGQGTQVTVSS | high polyreactivity |
| QVQLVESGGGLVQAGGSIRLSCAASGYILGRYAMGWYRQAPGKERELVAAITSGGSTYYADSVKGRFTISRDNAKNSVSLQMNSLKPEDTAVYYCAAYTRYWSYGYWGQGTQVTVSS | high polyreactivity |
| QVQLVESGGGLVQAGGSIRLSCAASVSIQTRNAMGWYRQAPGKERELVAAISRGGSTTYADSVKGRFTISRDNAKNTVYLQMNSLKPEDTAVYYCAASDYYVLSRRTRMDYWGQGTQVTVAS | high polyreactivity |
| QVQLVESGGGLVQAGGSIRLSCADSGIIFQANAMGWYRQAPRKERELVAGISRGSSTNYADSVKGRFTISLDNAKNTVYLQMNSLKPEDTAVYYCSAGFYYRPFYGSSHSYGYWGQGTQVTVSS | low polyreactivity |
| QVQLVESGGGLVQAGGSIRLSCASSGSTFTIYAMGWYRPAPGKERELVAAISGTGGTKYADSVKGRFTISRDNAKNTVYLQMNSLKPEDTAVYYCAVGLVPLRDGWHFYYEFDSWGQGTQVTVSS | low polyreactivity |
| QVQLVESGGGLVQAGGSIRLTCAASGSTFGKYAMGWYRQAPGKERELVARIDSGDGTYYADSLKGRFTISRDNAKNTVYLKMNSLKAEDTAVYYCAAGYGARRLTYFWPQYARYDYWGQGTQVTVSS | high polyreactivity |
| QVQLVESGGGLVQAGGSLCLSCAASGFIFEFYTMGWYRQAPGKERELVAAITNGDSTNYADSVKGRFTISRDNAKNTVYLQMNSLKPEDTAVYYCAADGKGETEYSSHPGWAFDYWGQGTQVTVSS | low polyreactivity |
| QVQLVESGGGLVQAGGSLCLSGAASGITFRFYAMGWYRQAPGKERELVAAISWSGGRTYYADSVKWRFTISRDNAKNTVYLQMNSLKPEDTAVYYCAAVASSVPGYDYWGQGTQVTVSS | low polyreactivity |
| QVQLVESGGGLVQAGGSLGLNCAASGFTFRVNAMGLYSQAPGKEREFVAAITASGGSTYYADSVKGRFTISRDNAKNTVYLLMNSLKPVDTAVYYCAADWWIYWYPDTGDYWGQRTQVTVSS | high polyreactivity |
| QVQLVESGGGLVQAGGSLGLSCAASGRTIDYYALGWYRQAPGKERELVAAITWDGSTYYADSVKGRFTISRDNAKITVYLQMISLKPEVTAVYYCAADFYWYLDLYDFWGQGTQVTVSS | high polyreactivity |

| Sequence | polyreactivity (PSR sort gate) |
| --- | --- |
| QVQLVESGGGLVQAGGSLGLSCAASGSTFGFYTMGWYRQAPGKERELVATISYSGGDTYYEDSVKGRFTISRDNAKNTVYFQMNSLKPEYTAVYYCAADLGDYVTTYSWLDSWGQGTQVTVSS | low polyreactivity |
| QVQLVESGGGLVQAGGSLGLTCAASGFIFLDYTMVWYRQAPGIERELVATINASDGSTYYADSVKGRFTISRDNAKKTVYLQMNSLKPEDTAVYYCNTKVISRTSERRGNGFTRYDYWGQGTQVTVSS | low polyreactivity |
| QVQLVESGGGLVQAGGSLLLICAASGSTFPYNAMGWYRQAPGKQRELVASITSRGGSTYYADSVKGRFTISRDNAKNTVYLQMNSLKPQDTAVYYCATPGDTYGWTRRRYYYWGQGTQVTVSS | high polyreactivity |
| QVQLVESGGGLVQAGGSLLLSCAASGFIFVSYAMGWYRQAPGKERELVAAIDRIGGITYYADSVKGRFTISRDNAKNTVYLQMNSLKREDTAVYYCAAAARFATVRVGREYYWGQGTQVTVSS | low polyreactivity |
| QVQLVESGGGLVQAGGSLLLSCAASGFILYSYAMGWYRQAPGTEREFVSVISRGGGRTYYADSVKGRFTISRDNAKNTVYLQMNCLKPDDTAVYYCAATPSNVYAYEYWGQGTQVTVSS | low polyreactivity |
| QVQLVESGGGLVQAGGSLLLSCAASGFTFLWYDMGWYRQSPGKERELVAAIDASDGSTYYADSVKGRFTISRDNAKNTVYLQMNSLKPEDTAVYYCAVAAGYFGKWTYYYWGQGTQVTVSS | high polyreactivity |
| QVQLVESGGGLVQAGGSLLLSCAASGIIFGTNALGWYRQAPGKERELVAAITWSGGNTTYADSVKGRFTISRDNAKNTVYLQMNSLKPEDTAVYYCAADFTRAGDYDYWGQGTQVTVSS | low polyreactivity |
| QVQLVESGGGLVQAGGSLLLSCAASGLIFSGYAMGWYRQAPGKERELVAAISRTVGTTYYADSVKGRFTISRDNGKNPVYLQMNSLKPEDTAVYYCAARGRATLYDYWGQGTQVTVSS | high polyreactivity |
| QVQLVESGGGLVQAGGSLLLSCAASGLIFYPYAMGWYRQAPGKEREFVAAITWSGGSTRYADSVKGRFTISRDNAKNTVYLQMNSLKPEDTAVYYCAARYIWWYDYTYTGLDYWGQGTQVTVSS | high polyreactivity |
| QVQLVESGGGLVQAGGSLLLSCAASGNTFYKYTMGWYRQAPGKERELVAVISSSSGSTYYADSVKGRFTISRDNAKNTVYLQMNSLKPEYTAVYYCKKRGWWDLRHYYWGQGTQVTVSS | low polyreactivity |
| QVQLVESGGGLVQAGGSLLLSCAASGRIFDVYALGWYRQAPGTEREWVAAITWRVGSTYYADSVKGRFTISRDTAKNTVYLQMNSLKPEDTAVYYCAVDSFLVYSAVRPYDYWGQGTQVTVSS | low polyreactivity |
| QVQLVESGGGLVQAGGSLLLSCAASGRIFWHNTMGWYRQAPGKERELVAGISVSGGSTYYADSVKGRFTISRDNAMNTVYLKMNSLKPEDTAVYYCAARKVTSWKAHFRFDYWGQGTQVTVSS | low polyreactivity |
| QVQLVESGGGLVQAGGSLLLSCAASGRTFSRNAMGWYRQAPGKERELVASIRSGGTTNYADSVKGRFTISRDNAKNTVYLQMNSLKPEVTAVYYCNAGDTFLDPCSQYLFDYWGQGTLVTVSS | low polyreactivity |
| QVQLVESGGGLVQAGGSLLLSCAASGRTFYVYAMGWYRQAPGKERELVAAITSGGRTYYADSVKGRFTISRDNAKNTVYLQMNRLKPEDTAVYYCNARRTSRSYSFNYWGQGTQVTVSS | high polyreactivity |
| QVQLVESGGGLVQAGGSLLLSCAASGSIFFYAMGSYRQAPGKERELVADITYTGGSKYADSVKGRFTISRDNAKNTVYLQMNSLKPEDTAVYYCAKLDGGLFDYWGQGTQVTVSS | low polyreactivity |
| QVQLVESGGGLVQAGGSLLLSCAASGSIFSIYAMGWYRQAPGKERELVAAISSSGRTYYADSVKGRFTISRDNAKNTVYLQMNSLKPEDTAVYSCNRVREGKHYYYWGQGTQVTVSS | high polyreactivity |
| QVQLVESGGGLVQAGGSLLLSCAASGSIFVRNTMGWYRQAPGKERELVAAITSSGGTTYYADSVKGRFTISRDNAKNTVYLQMNSLKPEDTAVYYCAARYGYWGQGTQVTVSS | high polyreactivity |
| QVQLVESGGGLVQAGGSLLLSCAASGSIYVNNAMGWYRQAPGKERELVAAISRSGGSTYYADSVKGRFTISRDSAKKTVYLQMNSLKPEDTAVYYCATVHRSSTPPEFNYSGQGTQVTVSS | high polyreactivity |
| QVQLVESGGGLVQAGGSLLLSCAASGSTFPHYTMGWYSQAPGKEREWVAVISRSGRTYYADSVKGRFTISRDNAKNTVYLQMNSLKPEDTAVYYCAVLVGRLVWSYNHWGQGTQGTVSS | high polyreactivity |
| QVQLVESGGGLVQAGGSLLLSCAASGSTFSYYGMGWYRQAPVKERELVAAIDYSGDSTYYADSVKGRFTISRDNSKNTVFLQMNSLKPEDTAVYYCAADDYPWNRYEYWGQGTQVTVSS | low polyreactivity |
| QVQLVESGGGLVQAGGSLLLSSAASGIIFNQYAMGWYRQAPGKERELVATISSGGARTYYADSVKWRFTISRDNAKNTVYLQMNSRKPEDTAVYFCNRRVPYSFYSRGYYYWGQGTQVTVSS | high polyreactivity |
